{
  "source": "patent US20170327598A1",
  "about": "(published 2017)",
  "binders": {"B1": {"name": "anti-STAT3 VHH13 (SEQ ID NO:3) sdAb (VHH)", "VHH": "HVQLVESGGGSVQAGGSLRLSCAASGANGGRSCMGWFRQVPGKEREGVSGISTGGLITYYADSVKGRFTISQDNTKNTLYLQMNSLKPEDTAMYYCATSRFDCYRGSWFNRYMYNSWGQGTQVTVSS"}},
  "assay_in_all_cases": "sandwich ELISA, STAT protein coated at 0.5 µg/mL",
  "key": {"STAT 5a protein": {"target": "T1, STAT 5a protein (UniProt P42229 1-794, limits assumed)", "T1 sequence (looked up)": "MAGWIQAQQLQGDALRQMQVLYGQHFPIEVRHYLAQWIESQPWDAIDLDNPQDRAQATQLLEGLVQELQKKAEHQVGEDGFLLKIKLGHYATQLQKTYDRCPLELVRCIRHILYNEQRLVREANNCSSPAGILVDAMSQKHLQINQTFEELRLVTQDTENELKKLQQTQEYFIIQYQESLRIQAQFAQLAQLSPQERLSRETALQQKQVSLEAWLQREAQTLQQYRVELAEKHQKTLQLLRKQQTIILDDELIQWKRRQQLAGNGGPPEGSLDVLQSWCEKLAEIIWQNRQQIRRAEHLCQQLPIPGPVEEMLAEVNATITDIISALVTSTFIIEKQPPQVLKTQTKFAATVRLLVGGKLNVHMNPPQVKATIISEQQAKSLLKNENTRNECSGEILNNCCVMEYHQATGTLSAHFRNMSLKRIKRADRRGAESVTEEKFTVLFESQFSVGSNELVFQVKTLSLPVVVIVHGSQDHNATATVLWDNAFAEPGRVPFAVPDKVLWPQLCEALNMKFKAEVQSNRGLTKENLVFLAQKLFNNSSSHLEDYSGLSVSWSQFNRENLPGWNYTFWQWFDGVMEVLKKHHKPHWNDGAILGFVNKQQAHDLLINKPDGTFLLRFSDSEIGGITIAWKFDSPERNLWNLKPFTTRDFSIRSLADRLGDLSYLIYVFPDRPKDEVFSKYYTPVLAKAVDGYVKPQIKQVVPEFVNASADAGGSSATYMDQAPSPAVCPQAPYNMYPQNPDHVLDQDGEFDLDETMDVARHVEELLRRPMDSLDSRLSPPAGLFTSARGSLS"}, "STAT 2 protein": {"target": "STAT 2 protein (UniProt P52630 1-851, limits assumed)", "sequence (P52630 whole entry)": "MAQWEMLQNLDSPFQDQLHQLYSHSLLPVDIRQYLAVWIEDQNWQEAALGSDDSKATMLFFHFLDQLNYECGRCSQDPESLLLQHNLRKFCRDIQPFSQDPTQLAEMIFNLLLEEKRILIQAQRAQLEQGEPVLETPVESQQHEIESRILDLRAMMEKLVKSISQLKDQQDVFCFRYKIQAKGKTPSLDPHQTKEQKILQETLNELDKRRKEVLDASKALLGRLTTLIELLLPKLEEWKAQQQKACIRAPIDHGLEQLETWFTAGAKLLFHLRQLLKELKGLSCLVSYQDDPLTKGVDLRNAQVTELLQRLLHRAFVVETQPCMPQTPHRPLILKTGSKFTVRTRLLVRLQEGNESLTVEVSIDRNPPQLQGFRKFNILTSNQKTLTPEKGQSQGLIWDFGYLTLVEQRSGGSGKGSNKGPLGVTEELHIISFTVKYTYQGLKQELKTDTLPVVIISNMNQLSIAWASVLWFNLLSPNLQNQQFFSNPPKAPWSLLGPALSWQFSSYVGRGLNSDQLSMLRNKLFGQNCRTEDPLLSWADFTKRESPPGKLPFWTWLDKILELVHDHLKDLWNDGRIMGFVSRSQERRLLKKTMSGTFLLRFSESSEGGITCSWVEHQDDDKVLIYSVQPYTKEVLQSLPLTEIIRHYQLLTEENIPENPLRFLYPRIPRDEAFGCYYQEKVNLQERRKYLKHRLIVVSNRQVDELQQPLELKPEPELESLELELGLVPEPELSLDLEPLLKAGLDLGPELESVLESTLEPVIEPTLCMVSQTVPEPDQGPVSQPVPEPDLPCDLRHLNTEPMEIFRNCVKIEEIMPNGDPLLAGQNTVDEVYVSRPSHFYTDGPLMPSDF"}, "STAT 1 protein [1]": {"target": "T2, STAT 1 protein (UniProt P42224 1-750, limits assumed)", "T2 sequence (looked up)": "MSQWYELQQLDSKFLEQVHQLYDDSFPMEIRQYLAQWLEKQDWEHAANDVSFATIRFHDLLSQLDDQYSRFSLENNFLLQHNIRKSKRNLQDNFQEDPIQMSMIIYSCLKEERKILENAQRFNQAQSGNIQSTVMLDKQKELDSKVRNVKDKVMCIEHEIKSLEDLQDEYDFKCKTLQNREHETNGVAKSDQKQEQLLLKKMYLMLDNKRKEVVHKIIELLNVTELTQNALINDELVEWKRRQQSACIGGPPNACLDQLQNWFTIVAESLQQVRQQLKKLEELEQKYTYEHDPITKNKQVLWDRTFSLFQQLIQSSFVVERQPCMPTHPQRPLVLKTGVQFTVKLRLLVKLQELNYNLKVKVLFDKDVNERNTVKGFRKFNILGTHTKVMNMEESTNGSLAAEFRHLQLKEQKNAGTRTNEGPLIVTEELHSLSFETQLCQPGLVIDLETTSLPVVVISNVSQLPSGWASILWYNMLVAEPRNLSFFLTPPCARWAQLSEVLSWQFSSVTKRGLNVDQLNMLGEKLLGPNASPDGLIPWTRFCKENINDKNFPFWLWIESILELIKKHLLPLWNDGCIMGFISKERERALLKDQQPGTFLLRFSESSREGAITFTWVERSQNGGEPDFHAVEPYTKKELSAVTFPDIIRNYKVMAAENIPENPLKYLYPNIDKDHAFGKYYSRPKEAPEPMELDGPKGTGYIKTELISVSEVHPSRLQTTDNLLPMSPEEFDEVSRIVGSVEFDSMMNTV"}, "STAT 3 protein [2]": {"target": "T3, STAT 3 protein (UniProt P40763 1-770, limits assumed)"}, "STAT 4 protein [3]": {"target": "T4, STAT 4 protein (UniProt Q14765 1-748, limits assumed)", "T4 sequence (looked up)": "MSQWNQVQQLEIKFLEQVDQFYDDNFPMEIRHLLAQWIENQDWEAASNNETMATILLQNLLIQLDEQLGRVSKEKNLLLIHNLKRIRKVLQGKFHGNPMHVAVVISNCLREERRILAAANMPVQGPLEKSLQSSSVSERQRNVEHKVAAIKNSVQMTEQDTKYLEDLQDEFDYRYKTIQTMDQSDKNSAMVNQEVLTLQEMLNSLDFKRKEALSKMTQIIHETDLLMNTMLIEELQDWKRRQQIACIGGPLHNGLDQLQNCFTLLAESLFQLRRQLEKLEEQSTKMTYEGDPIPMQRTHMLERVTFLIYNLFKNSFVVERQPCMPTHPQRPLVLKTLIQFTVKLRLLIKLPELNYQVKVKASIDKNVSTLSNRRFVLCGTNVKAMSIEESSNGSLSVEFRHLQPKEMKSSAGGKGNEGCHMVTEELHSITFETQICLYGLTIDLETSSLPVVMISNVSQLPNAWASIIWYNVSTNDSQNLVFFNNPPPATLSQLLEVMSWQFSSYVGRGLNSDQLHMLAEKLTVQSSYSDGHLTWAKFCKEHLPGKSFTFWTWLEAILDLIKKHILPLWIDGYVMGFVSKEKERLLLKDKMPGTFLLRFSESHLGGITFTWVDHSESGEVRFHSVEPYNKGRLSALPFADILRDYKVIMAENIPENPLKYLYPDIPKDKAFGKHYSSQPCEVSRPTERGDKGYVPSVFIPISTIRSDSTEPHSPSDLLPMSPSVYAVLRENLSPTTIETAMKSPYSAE"}, "STAT 1 protein [4]": {"target": "T2, STAT 1 protein", "remark": "listed apart in the source"}, "STAT 3 protein [5]": {"target": "T3, STAT 3 protein", "remark": "listed apart in the source"}, "STAT 4 protein [6]": {"target": "T4, STAT 4 protein", "remark": "listed apart in the source"}, "STAT 4 protein [7]": {"target": "T4, STAT 4 protein", "remark": "listed apart in the source"}},
  "note": "Like-named read-outs stand apart in the source and are kept apart here.",
  "data": [
    {"binder": "B1", "values": [
      {"measurement": "Mean OD450", "setting": "STAT 5a protein", "result": 3.32, "unit": "OD450"},
      {"measurement": "Mean OD450", "setting": "STAT 2 protein", "result": 3.34, "unit": "OD450"},
      {"measurement": "Mean OD450", "setting": "STAT 1 protein [1]", "result": 3.16, "unit": "OD450"},
      {"measurement": "Mean OD450", "setting": "STAT 3 protein [2]", "result": 3.67, "unit": "OD450"},
      {"measurement": "Mean OD450", "setting": "STAT 4 protein [3]", "result": 3.67, "unit": "OD450"},
      {"measurement": "Mean OD450", "setting": "STAT 1 protein [4]", "result": 0.159, "unit": "OD450"},
      {"measurement": "Mean OD450", "setting": "STAT 3 protein [5]", "result": 0.431, "unit": "OD450"},
      {"measurement": "Mean OD450", "setting": "STAT 4 protein [6]", "result": 0.833, "unit": "OD450"},
      {"measurement": "Mean OD450", "setting": "STAT 4 protein [7]", "result": 0.083, "unit": "OD450"}
    ]}
  ]
}
